Measurements as given in article PMC4038756 (Theranostics, 2014).

Legend:
Format in all cases: in vivo, NOD/SCID mice
[1] = Small animal PET/CT imaging, H460 tumor bearing mice; settings: NOD/SCID, mouse, iv, total radioactivity
H460 (αvβ6^-) xenografts = experiment: as above; settings: H460 tumor bearing mice, quantitative PET, mean ± s.d., n = 3
[2] = system: H2009 (αvβ6^+) xenografts; experiment: Small animal PET/CT imaging, H2009 tumor bearing mice; settings: for Tumor uptake: quantitative PET, mean ± s.d.; for Tumor uptake / Tumor/Lung: n = 3; for Tumor/Lung: ratio of PET uptakes
[3] = as above; settings: NOD/SCID, mouse, iv, total radioactivity
[4] = H2009 tumor bearing mice, 1 h p.i.
[5] = H2009 tumor bearing mice, 4 h p.i.
[6] = H2009 tumor bearing mice, 24 h p.i.

CC(C)C[C@H](NC(=O)[C@H](CCC(N)=O)NC(=O)[C@H](CCCNC(=N)N)NC(=O)[C@H](CC(C)C)NC(=O)[C@@H](NC(=O)[C@H](C)NC(=O)[C@H](CC(C)C)NC(=O)[C@H](CC(=O)O)NC(=O)CNC(=O)[C@@H](N)CCCNC(=N)N)[C@@H](C)O)C(=O)NCCOCCOCCOCCOCCOCCOCCOCCOCCOCCOCCOCCOCCC(=O)N[C@@H](CSC1CC(=O)N(CCNC(=O)CCC(C(=O)O)N2CCCN3CCN(CCCN(CC(=O)O)CC3)CC2)C1=O)C(N)=O (some centres unmarked) [^64Cu-M10, metal not drawn]
tissue uptake at 1 h ([1]; heart): 1.02 ± 0.17 %ID/g | tissue uptake at 4 h ([1]; heart): 0.65 ± 0.12 %ID/g | tissue uptake at 24 h ([1]; heart): 0.33 ± 0.03 %ID/g | tissue uptake at 1 h ([1]; kidney): 14 ± 2.4 %ID/g | tissue uptake at 4 h ([1]; kidney): 12.5 ± 2.33 %ID/g | tissue uptake at 24 h ([1]; kidney): 5.97 ± 1.01 %ID/g | tissue uptake at 1 h ([1]; liver): 0.93 ± 0.12 %ID/g | tissue uptake at 4 h ([1]; liver): 0.77 ± 0.06 %ID/g | tissue uptake at 24 h ([1]; liver): 0.43 ± 0.05 %ID/g | tissue uptake at 1 h ([1]; lung): 0.55 ± 0.09 %ID/g | tissue uptake at 4 h ([1]; lung): 0.34 ± 0.07 %ID/g | tissue uptake at 24 h ([1]; lung): 0.18 ± 0.02 %ID/g | tissue uptake at 1 h ([1]; muscle): 0.15 ± 0.07 %ID/g | tissue uptake at 4 h ([1]; muscle): 0.11 ± 0.04 %ID/g | tissue uptake at 24 h ([1]; muscle): 0.1 ± 0.03 %ID/g | Tumor uptake (H460 (αvβ6^-) xenografts; 1 h p.i.): 0.34 ± 0.05 %ID/g | Tumor uptake (H460 (αvβ6^-) xenografts; 4 h p.i.): 0.24 ± 0.01 %ID/g | Tumor uptake (H460 (αvβ6^-) xenografts; 24 h p.i.): 0.19 ± 0.01 %ID/g | Tumor uptake [2, 4]: 0.55 ± 0.17 %ID/g | Tumor/Lung [2, 4]: 0.83 ± 0.18 | Tumor uptake [2, 5]: 0.33 ± 0.11 %ID/g | Tumor/Lung [2, 5]: 1.0 ± 0.15 | Tumor uptake [2, 6]: 0.28 ± 0.11 %ID/g | Tumor/Lung [2, 6]: 1.86 ± 0.11 | tissue uptake at 1 h ([3]; heart): 1.02 ± 0.07 %ID/g | tissue uptake at 4 h ([3]; heart): 0.42 ± 0.06 %ID/g | tissue uptake at 24 h ([3]; heart): 0.16 ± 0.05 %ID/g | tissue uptake at 1 h ([3]; kidney): 6.83 ± 0.35 %ID/g | tissue uptake at 4 h ([3]; kidney): 6.23 ± 0.32 %ID/g | tissue uptake at 24 h ([3]; kidney): 3.5 ± 0.36 %ID/g | tissue uptake at 1 h ([3]; liver): 2.03 ± 0.23 %ID/g | tissue uptake at 4 h ([3]; liver): 1.53 ± 0.21 %ID/g | tissue uptake at 24 h ([3]; liver): 1.3 ± 0.1 %ID/g | tissue uptake at 1 h ([3]; lung): 0.66 ± 0.08 %ID/g | tissue uptake at 4 h ([3]; lung): 0.33 ± 0.11 %ID/g | tissue uptake at 24 h ([3]; lung): 0.15 ± 0.04 %ID/g | tissue uptake at 1 h ([3]; muscle): 0.3 ± 0.02 %ID/g | tissue uptake at 4 h ([3]; muscle): 0.12 ± 0.02 %ID/g | tissue uptake at 24 h ([3]; muscle): 0.14 ± 0.02 %ID/g

CC(C)C[C@H](NC(=O)[C@H](CCC(N)=O)NC(=O)[C@H](CCCNC(=N)N)NC(=O)[C@H](CC(C)C)NC(=O)[C@@H](NC(=O)[C@H](C)NC(=O)[C@H](CC(C)C)NC(=O)[C@H](CC(=O)O)NC(=O)CNC(=O)[C@@H](N)CCCNC(=N)N)[C@@H](C)O)C(=O)NCCOCCOCCOCCOCCOCCOCCOCCOCCOCCOCCOCCOCCC(=O)N[C@@H](CSC1CC(=O)N(CCNC(=O)CCC(C(=O)O)N2CCCN3CCN(CCCN(C(CCC(=O)NCCN4C(=O)CC(SC[C@H](NC(=O)CCOCCOCCOCCOCCOCCOCCOCCOCCOCCOCCOCCOCCNC(=O)[C@H](CC(C)C)NC(=O)[C@H](CCC(N)=O)NC(=O)[C@H](CCCNC(=N)N)NC(=O)[C@H](CC(C)C)NC(=O)[C@@H](NC(=O)[C@H](C)NC(=O)[C@H](CC(C)C)NC(=O)[C@H](CC(=O)O)NC(=O)CNC(=O)[C@@H](N)CCCNC(=N)N)[C@@H](C)O)C(N)=O)C4=O)C(=O)O)CC3)CC2)C1=O)C(N)=O (some centres unmarked) [^64Cu-(M10)2, metal not drawn]
tissue uptake at 1 h ([1]; heart): 1.7 %ID/g | tissue uptake at 4 h ([1]; heart): 1.25 ± 0.07 %ID/g | tissue uptake at 24 h ([1]; heart): 0.83 ± 0.17 %ID/g | tissue uptake at 1 h ([1]; kidney): 85.4 ± 17.5 %ID/g | tissue uptake at 4 h ([1]; kidney): 92.9 ± 11.3 %ID/g | tissue uptake at 24 h ([1]; kidney): 68.9 ± 8.13 %ID/g | tissue uptake at 1 h ([1]; liver): 5.45 ± 0.49 %ID/g | tissue uptake at 4 h ([1]; liver): 4.8 ± 0.14 %ID/g | tissue uptake at 24 h ([1]; liver): 3.25 ± 0.21 %ID/g | tissue uptake at 1 h ([1]; lung): 1.5 ± 0.14 %ID/g | tissue uptake at 4 h ([1]; lung): 1.15 ± 0.07 %ID/g | tissue uptake at 24 h ([1]; lung): 0.77 ± 0.01 %ID/g | tissue uptake at 1 h ([1]; muscle): 0.45 ± 0.18 %ID/g | tissue uptake at 4 h ([1]; muscle): 0.31 ± 0.06 %ID/g | tissue uptake at 24 h ([1]; muscle): 0.38 ± 0.08 %ID/g | Tumor uptake (H460 (αvβ6^-) xenografts; 1 h p.i.): 0.71 ± 0.05 %ID/g | Tumor uptake (H460 (αvβ6^-) xenografts; 4 h p.i.): 0.83 ± 0.04 %ID/g | Tumor uptake (H460 (αvβ6^-) xenografts; 24 h p.i.): 0.53 ± 0.17 %ID/g | increase of kidney uptake as compared to 64Cu-M10 ([2]; H2009 tumor bearing mice, 1 h, 4 h, 24 h p.i.): ~6 fold | Tumor uptake [2, 4]: 1.6 ± 0.20 %ID/g | Tumor/Lung [2, 4]: 1.0 ± 0.25 | Tumor uptake [2, 5]: 0.85 ± 0.19 %ID/g | Tumor/Lung [2, 5]: 1.2 ± 0.19 | Tumor uptake [2, 6]: 0.79 ± 0.03 %ID/g | Tumor/Lung [2, 6]: 1.9 ± 0.04 | tumor uptake increase as compared to 64Cu-M10 ([2]; H2009 tumor, all three time points (1 h, 4 h, 24 h p.i.)): ~3 fold | tissue uptake at 1 h ([3]; heart): 1.56 ± 0.15 %ID/g | tissue uptake at 4 h ([3]; heart): 0.71 ± 0.03 %ID/g | tissue uptake at 24 h ([3]; heart): 0.32 ± 0.03 %ID/g | tissue uptake at 1 h ([3]; kidney): 53.6 ± 8.68 %ID/g | tissue uptake at 4 h ([3]; kidney): 46.2 ± 10.4 %ID/g | tissue uptake at 24 h ([3]; kidney): 27.3 ± 7.3 %ID/g | tissue uptake at 1 h ([3]; liver): 2.13 ± 0.73 %ID/g | tissue uptake at 4 h ([3]; liver): 1.9 %ID/g | tissue uptake at 24 h ([3]; liver): 1.26 ± 0.25 %ID/g | tissue uptake at 1 h ([3]; lung): 1.66 ± 0.15 %ID/g | tissue uptake at 4 h ([3]; lung): 0.72 ± 0.02 %ID/g | tissue uptake at 24 h ([3]; lung): 0.4 ± 0.03 %ID/g | tissue uptake at 1 h ([3]; muscle): 0.87 ± 0.04 %ID/g | tissue uptake at 4 h ([3]; muscle): 0.3 ± 0.02 %ID/g | tissue uptake at 24 h ([3]; muscle): 0.25 ± 0.05 %ID/g
